According to the supplement of paper PMC10567573:

B1: PPEF2 (parent)
chain: DHSGFISLDEFRQTWKLFSSHMNI
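Also: lentivirally expressed fusions sorted by FACS into six bins by GFP to DsRed ratio, PSI derived from sequencing read proportions per bin multiplied by bin number.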

Variants of: B1
Experiment: protein stability index of a GFP-peptide fusion (GPS, HEK-293T) (PSI 1-6); higher = more stable
Details: c terminus: a fixed tail appended
In the case of DHSGFISLDEFRQVWKLFSSHMNI, the protein stability index is reported as 1.93. DKSGFISLDEFRQTWKLFSSHMNI showed a protein stability index of 2.01. In the case of DHSGFISLDEFRGTWKLFSSHMNI, the protein stability index is reported as 1.96. Variant DHSGFISLDEFRQTWKQFSSHMNI has a protein stability index of 1.58. DHSYFISLDEFRQTWKLFSSHMNI showed a protein stability index of 2.27. With MHSGFISLDEFRQTWKLFSSHMNI the protein stability index was 1.94. For DHSGFISLDDFRQTWKLFSSHMNI, the protein stability index was 1.71. In the case of DHSGFISLDEFRQTWKLFSSPMNI, the protein stability index is reported as 2.11. DHSGFISLDEFRQTWKLFFSHMNI gave a protein stability index of 2.32. Work on DHSGFISLDEFRQDWKLFSSHMNI yielded a protein stability index of 1.71. DHSGFISLDEFRQTWYLFSSHMNI showed a protein stability index of 3.45. Work on DHSGFICLDEFRQTWKLFSSHMNI yielded a protein stability index of 2.37. Variant DHSGFISLDEFRQTFKLFSSHMNI has a protein stability index of 2.07. DHSGFISLDEFRLTWKLFSSHMNI gave a protein stability index of 3.59. DHSGFISLDEFRQTWKLFSSHMHI showed a protein stability index of 2.16. Work on DHSGFISLDEFRQTWKLFSSHDNI yielded a protein stability index of 2.41. DHSGFISADEFRQTWKLFSSHMNI gave a protein stability index of 1.62. DHSGFISLDEFRQTWKRFSSHMNI showed a protein stability index of 1.62. DHSGFKSLDEFRQTWKLFSSHMNI gave a protein stability index of 1.94. DHSGFISDDEFRQTWKLFSSHMNI gave a protein stability index of 2.13. Work on DHSGFISLDEGRQTWKLFSSHMNI yielded a protein stability index of 2.52. In the case of DHSGFISLDEFRQTWKLTSSHMNI, the protein stability index is reported as 1.82. Work on DHSGFISLDEFRQTWKLFSLHMNI yielded a protein stability index of 2.03. DHSGFISLDEFRQTWKLFSSHMII gave a protein stability index of 2.18. Work on DHSGFISLDEFRQTWKLFSSHQNI yielded a protein stability index of 1.88. With DHSGFISLDEFRQTWKLFSSHSNI the protein stability index was 1.55. Work on DHSGFISLDEFEQTWKLFSSHMNI yielded a protein stability index of 1.62. Variant DHSGFISLDVFRQTWKLFSSHMNI has a protein stability index of 2.88. With DHSGFISLDEFRYTWKLFSSHMNI the protein stability index was 1.45. DHSGHISLDEFRQTWKLFSSHMNI showed a protein stability index of 1.77. DHSGFTSLDEFRQTWKLFSSHMNI gave a protein stability index of 1.71. Variant DHSGFISLDEFRKTWKLFSSHMNI has a protein stability index of 1.68. Variant DHSGFISLYEFRQTWKLFSSHMNI has a protein stability index of 1.51. For DHSGMISLDEFRQTWKLFSSHMNI, the protein stability index was 1.4. For DHSGFISLDEVRQTWKLFSSHMNI, the protein stability index was 2.07. In the case of DHSGFISLDEFRQTWKLFSSHKNI, the protein stability index is reported as 2.1. DHSGFISLDCFRQTWKLFSSHMNI gave a protein stability index of 1.95. For DHSGFISLDEFRQTWKLESSHMNI, the protein stability index was 1.88. DHSGFVSLDEFRQTWKLFSSHMNI gave a protein stability index of 1.41. DHSGFISLFEFRQTWKLFSSHMNI showed a protein stability index of 2.48. In the case of DHSGFISLDEFRQTWKLFSSHMNA, the protein stability index is reported as 1.96. In the case of DHSGFISLDEFRQTWKLFSSHFNI, the protein stability index is reported as 2.32. DHSGFLSLDEFRQTWKLFSSHMNI gave a protein stability index of 1.65. Variant DHSGFISLDEFQQTWKLFSSHMNI has a protein stability index of 1.38. DHSQFISLDEFRQTWKLFSSHMNI gave a protein stability index of 2.47. DHSGFISLDEFRQTWKLFSSCMNI gave a protein stability index of 2.9. Work on DHSGFISLDEFRQTMKLFSSHMNI yielded a protein stability index of 2.79. With GHSGFISLDEFRQTWKLFSSHMNI the protein stability index was 1.47. For DHSGFDSLDEFRQTWKLFSSHMNI, the protein stability index was 1.62. Variant DHSGFISLDEFRQTWKLNSSHMNI has a protein stability index of 2.12. For DHQGFISLDEFRQTWKLFSSHMNI, the protein stability index was 1.85. With DHSGFISLDEFRQTWKLFSSHMNY the protein stability index was 2.04. With DHSGFISLDEFRQTWKLFSSRMNI the protein stability index was 2.23. With DHSGFISLDEFRQKWKLFSSHMNI the protein stability index was 1.93. For LHSGFISLDEFRQTWKLFSSHMNI, the protein stability index was 3.93. Work on DHSGFISLDENRQTWKLFSSHMNI yielded a protein stability index of 1.51. With DHSTFISLDEFRQTWKLFSSHMNI the protein stability index was 1.95. DSSGFISLDEFRQTWKLFSSHMNI showed a protein stability index of 1.92. For DHSGFISLDEFRQTVKLFSSHMNI, the protein stability index was 2.1. In the case of DHSGIISLDEFRQTWKLFSSHMNI, the protein stability index is reported as 1.86. With DHSGFIWLDEFRQTWKLFSSHMNI the protein stability index was 2.08. DHSGFISLMEFRQTWKLFSSHMNI showed a protein stability index of 2.67. With DHSGFISFDEFRQTWKLFSSHMNI the protein stability index was 2.59. Variant DHSGFISLDEFRQMWKLFSSHMNI has a protein stability index of 1.85. With DHSGFISLDEFRQTWKPFSSHMNI the protein stability index was 1.55. Work on DHSGFISLDEFRQTWKLFNSHMNI yielded a protein stability index of 1.07. Work on DHSGFISLDEFRQTWKLFSSHWNI yielded a protein stability index of 2.49. DHSGFISLAEFRQTWKLFSSHMNI showed a protein stability index of 3.05. With DHSGFISLDEFRQTWKLFSSHMNM the protein stability index was 2.04. Work on DHDGFISLDEFRQTWKLFSSHMNI yielded a protein stability index of 2. DHSGFISLDEFRQTWKLFSSHMPI gave a protein stability index of 1.84. Work on DHSGFISLDEFDQTWKLFSSHMNI yielded a protein stability index of 2.06. DHSGFISLDEFRQTWKGFSSHMNI showed a protein stability index of 1.5. Variant DHSGFISLREFRQTWKLFSSHMNI has a protein stability index of 1.92. DHSGFISLDEFRQTWKLFSGHMNI showed a protein stability index of 2.92. DHSGFISLDEFRQTWKLFSAHMNI gave a protein stability index of 2.14. In the case of DHSGFISLDEFRQTWKLFSSHMMI, the protein stability index is reported as 2.57. With DHSGFISLDEFRQAWKLFSSHMNI the protein stability index was 2. Variant DHSGFISLDEFRQTNKLFSSHMNI has a protein stability index of 2.06. DHSGFISLDEFRQTWKFFSSHMNI showed a protein stability index of 3.02. In the case of DHSGFISLDEERQTWKLFSSHMNI, the protein stability index is reported as 2.37. Work on DHSGFISLDEFAQTWKLFSSHMNI yielded a protein stability index of 1.87. For DHSGFINLDEFRQTWKLFSSHMNI, the protein stability index was 2.06. Work on DHSGFISLDERRQTWKLFSSHMNI yielded a protein stability index of 2.01. Variant DHSGFISLDEFRQRWKLFSSHMNI has a protein stability index of 2.38. DHSFFISLDEFRQTWKLFSSHMNI gave a protein stability index of 2.5. For DHSGFISLDEFRQTWKLFSVHMNI, the protein stability index was 3. For DHSGFIHLDEFRQTWKLFSSHMNI, the protein stability index was 1.83. Variant DHSGFISLDEFRQTWKLSSSHMNI has a protein stability index of 2.14. With DHSGFISLDEFRQTWKLFSSHMNG the protein stability index was 1.98. For THSGFISLDEFRQTWKLFSSHMNI, the protein stability index was 2.84. DHSGFISNDEFRQTWKLFSSHMNI gave a protein stability index of 1.62. Work on DHSGFISLDEFRQGWKLFSSHMNI yielded a protein stability index of 1.69. With DHSGFISLDEFRQTWKLFSSHMND the protein stability index was 1.96.
